Reference: article PMC7862258

Legend:
[1] = anti-FLAG western blot of cell lysate (intracellular level), HEK293A; conditions: glycan lost; control: WT F3
[2] = anti-FLAG western blot of conditioned media, HEK293A; conditions: glycan lost; for expression_or_secretion, other: relative secretion, % of N249Q F3: control: same variant with N249 glycan (normalised to WT F3), arms normalised to N249Q F3

Protein | expression_or_secretion, percent_of_wt [1] | expression_or_secretion, percent_of_wt ([2]; control: WT F3) | expression_or_secretion, other: relative secretion, % of N249Q F3 [2]
fibulin-3 (F3): N249Q (protein) parent chain: MLKALFLTMLTLALVKSQDTEETITYTQCTDGYEWDPVRQQCKDIDECDIVPDACKGGMKCVNHYGGYLCLPKTAQIIVNNEQPQQETQPAEGTSGATTGVVAASSMATSGVLPGGGFVASAAAVAGPEMQTGRNNFVIRRNPADPQRIPSNPSHRIQCAAGYEQSEHNVCQDIDECTAGTHNCRADQVCINLRGSFACQCPPGYQKRGEQCVDIDECTIPPYCHQRCVNTPGSFYCQCSPGFQLAANNYTCVDINECDASNQCAQQCYNILGSFICQCNQGYELSSDRLNCEDIDECRTSSYLCQYQCVNEPGKFSCMCPQGYQVVRSRTCQDINECETTNECREDEMCWNYHGGFRCYPRNPCQDPYILTPENRCVCPVSNAMCRELPQSIVYKYMSIRSDRSVPSDIFQIQATTIYANTINTFRIKSGNENGEFYLRQTSPVSAMLVLVKSLSGPREHIVDLEMLTVSSIGTFRTSSVLRLTIIVGPFSF | no change | no change | 
fibulin-3 (F3): R140W/N249Q (protein) parent chain: MLKALFLTMLTLALVKSQDTEETITYTQCTDGYEWDPVRQQCKDIDECDIVPDACKGGMKCVNHYGGYLCLPKTAQIIVNNEQPQQETQPAEGTSGATTGVVAASSMATSGVLPGGGFVASAAAVAGPEMQTGRNNFVIRRNPADPQRIPSNPSHRIQCAAGYEQSEHNVCQDIDECTAGTHNCRADQVCINLRGSFACQCPPGYQKRGEQCVDIDECTIPPYCHQRCVNTPGSFYCQCSPGFQLAANNYTCVDINECDASNQCAQQCYNILGSFICQCNQGYELSSDRLNCEDIDECRTSSYLCQYQCVNEPGKFSCMCPQGYQVVRSRTCQDINECETTNECREDEMCWNYHGGFRCYPRNPCQDPYILTPENRCVCPVSNAMCRELPQSIVYKYMSIRSDRSVPSDIFQIQATTIYANTINTFRIKSGNENGEFYLRQTSPVSAMLVLVKSLSGPREHIVDLEMLTVSSIGTFRTSSVLRLTIIVGPFSF |  |  | no change
fibulin-3 (F3): N249Q/R387Q (protein) parent chain: MLKALFLTMLTLALVKSQDTEETITYTQCTDGYEWDPVRQQCKDIDECDIVPDACKGGMKCVNHYGGYLCLPKTAQIIVNNEQPQQETQPAEGTSGATTGVVAASSMATSGVLPGGGFVASAAAVAGPEMQTGRNNFVIRRNPADPQRIPSNPSHRIQCAAGYEQSEHNVCQDIDECTAGTHNCRADQVCINLRGSFACQCPPGYQKRGEQCVDIDECTIPPYCHQRCVNTPGSFYCQCSPGFQLAANNYTCVDINECDASNQCAQQCYNILGSFICQCNQGYELSSDRLNCEDIDECRTSSYLCQYQCVNEPGKFSCMCPQGYQVVRSRTCQDINECETTNECREDEMCWNYHGGFRCYPRNPCQDPYILTPENRCVCPVSNAMCRELPQSIVYKYMSIRSDRSVPSDIFQIQATTIYANTINTFRIKSGNENGEFYLRQTSPVSAMLVLVKSLSGPREHIVDLEMLTVSSIGTFRTSSVLRLTIIVGPFSF |  |  | no change
fibulin-3 (F3): D49A/N249Q (protein) parent chain: MLKALFLTMLTLALVKSQDTEETITYTQCTDGYEWDPVRQQCKDIDECDIVPDACKGGMKCVNHYGGYLCLPKTAQIIVNNEQPQQETQPAEGTSGATTGVVAASSMATSGVLPGGGFVASAAAVAGPEMQTGRNNFVIRRNPADPQRIPSNPSHRIQCAAGYEQSEHNVCQDIDECTAGTHNCRADQVCINLRGSFACQCPPGYQKRGEQCVDIDECTIPPYCHQRCVNTPGSFYCQCSPGFQLAANNYTCVDINECDASNQCAQQCYNILGSFICQCNQGYELSSDRLNCEDIDECRTSSYLCQYQCVNEPGKFSCMCPQGYQVVRSRTCQDINECETTNECREDEMCWNYHGGFRCYPRNPCQDPYILTPENRCVCPVSNAMCRELPQSIVYKYMSIRSDRSVPSDIFQIQATTIYANTINTFRIKSGNENGEFYLRQTSPVSAMLVLVKSLSGPREHIVDLEMLTVSSIGTFRTSSVLRLTIIVGPFSF |  |  | no change
fibulin-3 (F3): I220F/N249Q (protein) parent chain: MLKALFLTMLTLALVKSQDTEETITYTQCTDGYEWDPVRQQCKDIDECDIVPDACKGGMKCVNHYGGYLCLPKTAQIIVNNEQPQQETQPAEGTSGATTGVVAASSMATSGVLPGGGFVASAAAVAGPEMQTGRNNFVIRRNPADPQRIPSNPSHRIQCAAGYEQSEHNVCQDIDECTAGTHNCRADQVCINLRGSFACQCPPGYQKRGEQCVDIDECTIPPYCHQRCVNTPGSFYCQCSPGFQLAANNYTCVDINECDASNQCAQQCYNILGSFICQCNQGYELSSDRLNCEDIDECRTSSYLCQYQCVNEPGKFSCMCPQGYQVVRSRTCQDINECETTNECREDEMCWNYHGGFRCYPRNPCQDPYILTPENRCVCPVSNAMCRELPQSIVYKYMSIRSDRSVPSDIFQIQATTIYANTINTFRIKSGNENGEFYLRQTSPVSAMLVLVKSLSGPREHIVDLEMLTVSSIGTFRTSSVLRLTIIVGPFSF |  |  | no change
